From ChEMBL document CHEMBL4680222, “Sensitive fluorogenic substrates for sirtuin deacylase inhibitor discovery” (Eur J Med Chem, 2020) come the findings set out here.

Compound in data set [1]: CC(=O)NCCCC[C@H](NC(=O)[C@H](CC(C)C)NC(=O)[C@H](CCCCN)NC(=O)[C@H](Cc1ccc(O)cc1)NC(C)=O)C(=O)Nc1ccc2c(C)cc(=O)oc2c1
The data set is described as follows: (§1) Substrate activity at human N-terminal His-tagged SIRT3 (122 to 391 residues) expressed in Escherichia coli assessed as Km measured after 1 hr in presence of NAD+ and trypsin by Michaelis-Menten kinetic model based fluorescence assay.

Compound in data set [2]: CC[C@H](C)[C@H](NC(=O)[C@H](CC(C)C)NC(=O)[C@H](CCCNC(=N)N)NC(C)=O)C(=O)N[C@@H](CCCCNC(C)=O)C(=O)Nc1ccc2c(C)cc(=O)oc2c1
The description is as §1.

Compound in data set [3]: CC(=O)NCCCC[C@H](NC(=O)[C@H](CC(C)C)NC(=O)[C@H](CCCCN)NC(=O)[C@H](Cc1ccc(O)cc1)NC(C)=O)C(=O)Nc1ccc2c(C)cc(=O)oc2c1
The data set is described as follows: (§2) Substrate activity at human N-terminal His-tagged SIRT3 (122 to 391 residues) expressed in Escherichia coli assessed as Vmax measured after 1 hr in presence of NAD+ and trypsin by Michaelis-Menten kinetic model based fluorescence assay.

Compound in data set [4]: CC[C@H](C)[C@H](NC(=O)[C@H](CC(C)C)NC(=O)[C@H](CCCNC(=N)N)NC(C)=O)C(=O)N[C@@H](CCCCNC(C)=O)C(=O)Nc1ccc2c(C)cc(=O)oc2c1
The description is as §2.

Compound in data set [5]: CC(=O)NCCCC[C@H](NC(=O)[C@H](CC(C)C)NC(=O)[C@H](CCCCN)NC(=O)[C@H](Cc1ccc(O)cc1)NC(C)=O)C(=O)Nc1ccc2c(C)cc(=O)oc2c1
The data set is described as follows: (§3) Substrate activity at human N-terminal His-tagged SIRT3 (122 to 391 residues) expressed in Escherichia coli assessed as Kcat measured after 1 hr in presence of NAD+ and trypsin by Michaelis-Menten kinetic model based fluorescence assay.

Compound in data set [6]: CC[C@H](C)[C@H](NC(=O)[C@H](CC(C)C)NC(=O)[C@H](CCCNC(=N)N)NC(C)=O)C(=O)N[C@@H](CCCCNC(C)=O)C(=O)Nc1ccc2c(C)cc(=O)oc2c1
Described as §3.

Compound in data set [7]: CC(=O)NCCCC[C@H](NC(=O)[C@H](CC(C)C)NC(=O)[C@H](CCCCN)NC(=O)[C@H](Cc1ccc(O)cc1)NC(C)=O)C(=O)Nc1ccc2c(C)cc(=O)oc2c1
The data set is described as follows: (§4) Substrate activity at human N-terminal His-tagged SIRT3 (122 to 391 residues) expressed in Escherichia coli assessed as ratio of Kcat to Km measured after 1 hr in presence of NAD+ and trypsin by Michaelis-Menten kinetic model based fluorescence assay.

Compound in data set [8]: CC[C@H](C)[C@H](NC(=O)[C@H](CC(C)C)NC(=O)[C@H](CCCNC(=N)N)NC(C)=O)C(=O)N[C@@H](CCCCNC(C)=O)C(=O)Nc1ccc2c(C)cc(=O)oc2c1
The data set is described as §4.

B1: NAD-dependent protein deacetylase sirtuin-3, mitochondrial (Homo sapiens), Q9NTG7 (protein)
chain: MAFWGWRAAAALRLWGRVVERVEAGGGVGPFQACGCRLVLGGRDDVSAGLRGSHGARGEPLDPARPLQRPPRPEVPRAFRRQPRAAAPSFFFSSIKGGRRSISFSVGASSVVGSGGSSDKGKLSLQDVAELIRARACQRVVVMVGAGISTPSGIPDFRSPGSGLYSNLQQYDLPYPEAIFELPFFFHNPKPFFTLAKELYPGNYKPNVTHYFLRLLHDKGLLLRLYTQNIDGLERVSGIPASKLVEAHGTFASATCTVCQRPFPGEDIRADVMADRVPRCPVCTGVVKPDIVFFGEPLPQRFLLHVVDFPMADLLLILGTSLEVEPFASLTEAVRSSVPRLLINRDLVGPLAWHPRSRDVAQLGDVVHGVESLVELLGWTEEMRDLVQRETGKLDGPDK
For B1, the Michaelis-Menten constant (Km) (in general, the substrate concentration at which the rate is half of its maximum) in data set [1] is 63.4 µM; in data set [2] it was 6.52 µM. Moreover, the Vmax (commonly the top rate of the reaction or transport when substrate is in excess) in data set [3] was found to be 14.6 nM/min; in data set [4] it was 33.5 nM/min. For the same protein, the catalytic constant (kcat) (as a rule, the number of substrate molecules converted per active site and unit of time at saturation) in data set [5] was 2.44 10^-3/s; in data set [6], 5.58 10^-3/s. Moreover, the kcat/Km (usually the second-order rate constant that governs catalysis at low substrate concentration) worked out at 26.1 M⁻¹ s⁻¹ in data set [7] and 850 M⁻¹ s⁻¹ in data set [8].
